From IntAct's records for PubMed 29892012 come the findings set out here.

B1: Coiled-coil alpha-helical rod protein 1 (Homo sapiens), Q8TD31 (parent)
chain: MFPPSGSTGLIPPSHFQARPLSTLPRMAPTWLSDIPLVQPPGHQDVSERRLDTQRPQVTMWERDVSSDRQEPGRRGRSWGLEGSQALSQQAEVIVRQLQELRRLEEEVRLLRETSLQQKMRLEAQAMELEALARAEKAGRAEAEGLRAALAGAEVVRKNLEEGSQRELEEVQRLHQEQLSSLTQAHEEALSSLTSKAEGLEKSLSSLETRRAGEAKELAEAQREAELLRKQLSKTQEDLEAQVTLVENLRKYVGEQVPSEVHSQTWELERQKLLETMQHLQEDRDSLHATAELLQVRVQSLTHILALQEEELTRKVQPSDSLEPEFTRKCQSLLNRWREKVFALMVQLKAQELEHSDSVKQLKGQVASLQEKVTSQSQEQAILQRSLQDKAAEVEVERMGAKGLQLELSRAQEARRRWQQQTASAEEQLRLVVNAVSSSQIWLETTMAKVEGAAAQLPSLNNRLSYAVRKVHTIRGLIARKLALAQLRQESCPLPPPVTDVSLELQQLREERNRLDAELQLSARLIQQEVGRAREQGEAERQQLSKVAQQLEQELQQTQESLASLGLQLEVARQGQQESTEEAASLRQELTQQQELYGQALQEKVAEVETRLREQLSDTERRLNEARREHAKAVVSLRQIQRRAAQEKERSQELRRLQEEARKEEGQRLARRLQELERDKNLMLATLQQEGLLSRYKQQRLLTVLPSLLDKKKSVVSSPRPPECSASAPVAAAVPTRESIKGSLSVLLDDLQDLSEAISKEEAVCQGDNLDRCSSSNPQMSS
partner: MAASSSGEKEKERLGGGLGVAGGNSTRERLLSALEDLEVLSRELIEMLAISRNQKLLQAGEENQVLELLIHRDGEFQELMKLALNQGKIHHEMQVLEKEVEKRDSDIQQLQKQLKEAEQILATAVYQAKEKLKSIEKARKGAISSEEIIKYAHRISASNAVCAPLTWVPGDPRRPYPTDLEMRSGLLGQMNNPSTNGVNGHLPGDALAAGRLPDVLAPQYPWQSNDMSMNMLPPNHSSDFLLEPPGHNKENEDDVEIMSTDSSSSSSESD
B2: TBC1 domain family member 22B (Homo sapiens), Q9NU19 (parent)
chain: MAAENSKQFWKRSAKLPGSIQPVYGAQHPPLDPRLTKNFIKERSKVNTVPLKNKKASSFHEFARNTSDAWDIGDDEEEDFSSPSFQTLNSKVALATAAQVLENHSKLRVKPERSQSTTSDVPANYKVIKSSSDAQLSRNSSDTCLRNPLHKQQSLPLRPIIPLVARISDQNASGAPPMTVREKTRLEKFRQLLSSQNTDLDELRKCSWPGVPREVRPITWRLLSGYLPANTERRKLTLQRKREEYFGFIEQYYDSRNEEHHQDTYRQIHIDIPRTNPLIPLFQQPLVQEIFERILFIWAIRHPASGYVQGINDLVTPFFVVFLSEYVEEDVENFDVTNLSQDMLRSIEADSFWCMSKLLDGIQDNYTFAQPGIQKKVKALEELVSRIDEQVHNHFRRYEVEYLQFAFRWMNNLLMRELPLRCTIRLWDTYQSEPEGFSHFHLYVCAAFLIKWRKEILDEEDFQGLLMLLQNLPTIHWGNEEIGLLLAEAYRLKYMFADAPNHYRR
partner: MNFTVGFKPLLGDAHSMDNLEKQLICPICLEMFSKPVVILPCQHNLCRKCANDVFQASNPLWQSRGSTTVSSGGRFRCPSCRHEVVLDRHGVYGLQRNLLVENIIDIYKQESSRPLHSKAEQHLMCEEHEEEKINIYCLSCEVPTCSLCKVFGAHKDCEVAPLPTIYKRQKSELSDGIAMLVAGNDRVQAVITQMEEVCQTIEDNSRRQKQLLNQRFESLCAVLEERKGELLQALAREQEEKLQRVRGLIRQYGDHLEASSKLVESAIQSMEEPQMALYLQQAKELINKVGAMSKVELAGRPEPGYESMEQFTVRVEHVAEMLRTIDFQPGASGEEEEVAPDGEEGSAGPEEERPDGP
B3: E3 ubiquitin-protein ligase LNX (Homo sapiens), Q8TBB1 (parent)
chain: MNQPESANDPEPLCAVCGQAHSLEENHFYSYPEEVDDDLICHICLQALLDPLDTPCGHTYCTLCLTNFLVEKDFCPMDRKPLVLQHCKKSSILVNKLLNKLLVTCPFREHCTQVLQRCDLEHHFQTSCKGASHYGLTKDRKRRSQDGCPDGCASLTATAPSPEVSAAATISLMTDEPGLDNPAYVSSAEDGQPAISPVDSGRSNRTRARPFERSTIRSRSFKKINRALSVLRRTKSGSAVANHADQGRENSENTTAPEVFPRLYHLIPDGEITSIKINRVDPSESLSIRLVGGSETPLVHIIIQHIYRDGVIARDGRLLPGDIILKVNGMDISNVPHNYAVRLLRQPCQVLWLTVMREQKFRSRNNGQAPDAYRPRDDSFHVILNKSSPEEQLGIKLVRKVDEPGVFIFNVLDGGVAYRHGQLEENDRVLAINGHDLRYGSPESAAHLIQASERRVHLVVSRQVRQRSPDIFQEAGWNSNGSWSPGPGERSNTPKPLHPTITCHEKVVNIQKDPGESLGMTVAGGASHREWDLPIYVISVEPGGVISRDGRIKTGDILLNVDGVELTEVSRSEAVALLKRTSSSIVLKALEVKEYEPQEDCSSPAALDSNHNMAPPSDWSPSWVMWLELPRCLYNCKDIVLRRNTAGSLGFCIVGGYEEYNGNKPFFIKSIVEGTPAYNDGRIRCGDILLAVNGRSTSGMIHACLARLLKELKGRITLTIVSWPGTFL
partner: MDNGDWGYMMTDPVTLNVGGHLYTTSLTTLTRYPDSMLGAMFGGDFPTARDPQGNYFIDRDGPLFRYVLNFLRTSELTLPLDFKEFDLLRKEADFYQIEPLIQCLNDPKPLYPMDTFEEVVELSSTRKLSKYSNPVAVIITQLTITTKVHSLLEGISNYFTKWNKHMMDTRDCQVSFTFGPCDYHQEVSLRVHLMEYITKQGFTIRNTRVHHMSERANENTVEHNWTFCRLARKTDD
B4: Coiled-coil alpha-helical rod protein 1 (Homo sapiens), Q8TD31 (parent)
chain: B1 chain
partner: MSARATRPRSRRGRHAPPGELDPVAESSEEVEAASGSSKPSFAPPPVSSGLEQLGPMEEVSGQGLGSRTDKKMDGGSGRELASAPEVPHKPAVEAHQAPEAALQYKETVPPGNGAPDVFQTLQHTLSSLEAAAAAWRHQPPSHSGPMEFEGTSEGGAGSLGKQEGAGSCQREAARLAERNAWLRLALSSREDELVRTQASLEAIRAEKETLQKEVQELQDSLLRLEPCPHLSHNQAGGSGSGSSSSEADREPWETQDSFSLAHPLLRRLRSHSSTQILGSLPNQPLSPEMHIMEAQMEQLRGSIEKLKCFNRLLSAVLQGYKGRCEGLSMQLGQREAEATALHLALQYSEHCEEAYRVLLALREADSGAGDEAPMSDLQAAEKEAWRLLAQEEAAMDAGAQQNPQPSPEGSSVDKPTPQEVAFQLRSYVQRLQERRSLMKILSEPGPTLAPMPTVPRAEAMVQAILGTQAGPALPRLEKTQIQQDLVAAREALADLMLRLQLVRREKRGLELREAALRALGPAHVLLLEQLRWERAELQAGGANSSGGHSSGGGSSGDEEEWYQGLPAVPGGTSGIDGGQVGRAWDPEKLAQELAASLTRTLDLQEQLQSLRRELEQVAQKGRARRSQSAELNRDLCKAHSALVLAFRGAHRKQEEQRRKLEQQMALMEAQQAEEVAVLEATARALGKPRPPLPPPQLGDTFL
B5: Coiled-coil alpha-helical rod protein 1 (Homo sapiens), Q8TD31 (parent)
chain: B1 chain
partner: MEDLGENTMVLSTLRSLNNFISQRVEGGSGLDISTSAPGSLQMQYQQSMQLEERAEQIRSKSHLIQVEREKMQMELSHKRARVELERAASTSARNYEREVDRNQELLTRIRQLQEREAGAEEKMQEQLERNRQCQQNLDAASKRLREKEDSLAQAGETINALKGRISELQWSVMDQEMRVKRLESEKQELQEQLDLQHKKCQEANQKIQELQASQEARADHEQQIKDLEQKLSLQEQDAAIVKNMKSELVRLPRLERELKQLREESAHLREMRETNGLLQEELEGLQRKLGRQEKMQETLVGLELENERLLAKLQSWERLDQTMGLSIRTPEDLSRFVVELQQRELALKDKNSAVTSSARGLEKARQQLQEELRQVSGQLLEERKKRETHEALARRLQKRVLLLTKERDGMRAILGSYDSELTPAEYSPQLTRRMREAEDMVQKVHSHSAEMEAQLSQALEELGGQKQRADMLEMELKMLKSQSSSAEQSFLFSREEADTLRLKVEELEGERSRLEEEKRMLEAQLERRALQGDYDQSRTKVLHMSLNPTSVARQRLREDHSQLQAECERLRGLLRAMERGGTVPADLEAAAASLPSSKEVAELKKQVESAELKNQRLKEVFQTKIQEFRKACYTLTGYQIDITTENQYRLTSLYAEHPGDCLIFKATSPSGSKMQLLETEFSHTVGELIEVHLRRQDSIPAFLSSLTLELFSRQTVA

In the first assay the parent is B1. The note with it: with med4_human MED4, Q9NPJ6.
Regarding W337R, the “effect of a mutation on the interaction” value was “with no effect”.

Variants of B2 are the subject of another assay. The note with it: with tri54_human TRIM54, Q9BYV2.
With A349T, the “effect of a mutation on the interaction” value was “disrupting interaction strength”.

Variants of B3 are the subject of the next assay. The note with it: with kctd6_human KCTD6, Q8NC69.
With E295K, the “effect of a mutation on the interaction” value is given as “disrupting interaction strength”.

The variants in the next assay derive from B4. The conditions noted are these: with usbp1_human USHBP1, Q8N6Y0.
For W337R, the “effect of a mutation on the interaction” value is reported as “disrupting interaction strength”.

The variants in a further assay derive from B5. The conditions noted are these: with md1l1_human MAD1L1, Q9Y6D9.
As for W337R, the “effect of a mutation on the interaction” value is “disrupting interaction strength”.
